Measured values: paper PMC11417369, “DNA sequence and chromatin differentiate sequence-specific transcription factor binding in the human malaria parasite Plasmodium falciparum”

T1: AP2-G D1 (Plasmodium falciparum, UniProt Q8I5I9 2123-2245)
T1 sequence: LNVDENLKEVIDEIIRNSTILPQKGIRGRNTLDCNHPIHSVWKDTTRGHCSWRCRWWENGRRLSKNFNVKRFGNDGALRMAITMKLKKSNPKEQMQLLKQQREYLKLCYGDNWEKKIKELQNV


What follows are binders tested against T1, AP2-G D1 (assay: gcPBM; about 25 ug protein; PBS, 1% milk, 0.2 mg/ml BSA, salmon testes DNA, 0.03% Triton X-100). Conditions: tags: N-terminal GST (pGEX-4T-1), kept; label: surface-attached array probe.

Row | Binder | binding signal
1 | XGTACX_site6582 (dsDNA) DNA 1: TTTCATTTTTTTACATGTACGCAAAAGTGTGTAGTT DNA 2: AACTACACACTTTTGCGTACATGTAAAAAAATGAAA | 12.6 ln median PBM intensity, better of two orientations
2 | XGTACX_site6677 (dsDNA) DNA 1: TTGTATTTCCTTAGGAGTACACATAAATAAGTAAAT DNA 2: ATTTACTTATTTATGTGTACTCCTAAGGAAATACAA | 12.7 ln median PBM intensity, better of two orientations
3 | XGTACX_site7607 (dsDNA) DNA 1: AATATACAATAAAGGTGTACACATATATGATGCAAG DNA 2: CTTGCATCATATATGTGTACACCTTTATTGTATATT | 12.8 ln median PBM intensity, better of two orientations
4 | XGTACX_site2176 (dsDNA) DNA 1: CTTCTTATTTTCTAATGTACGTACAAATCATTTATA DNA 2: TATAAATGATTTGTACGTACATTAGAAAATAAGAAG | 12.6 ln median PBM intensity, better of two orientations
5 | XGTACX_site3752 (dsDNA) DNA 1: TAAAAAAAAAAAAAAAGTACACACATACATATAAAT DNA 2: ATTTATATGTATGTGTGTACTTTTTTTTTTTTTTTA | 12.7 ln median PBM intensity, better of two orientations
6 | XGTACX_site3444 (dsDNA) DNA 1: TATATTATATATTTATGTACGTATTTGTAAAAAGAT DNA 2: ATCTTTTTACAAATACGTACATAAATATATAATATA | 12.8 ln median PBM intensity, better of two orientations
7 | XGTACX_site146 (dsDNA) DNA 1: GGACGTATTAAAAGGCGTACACTAAATATTTTATGT DNA 2: ACATAAAATATTTAGTGTACGCCTTTTAATACGTCC | 12.8 ln median PBM intensity, better of two orientations
8 | XGTACX_site7325 (dsDNA) DNA 1: TTTTTTTTATTTTGTTGTACGCTTATTTGTATATAT DNA 2: ATATATACAAATAAGCGTACAACAAAATAAAAAAAA | 12.8 ln median PBM intensity, better of two orientations
9 | XGTACX_site8307 (dsDNA) DNA 1: AAATTATAAAAATGTAGTACAGACAATATATTCGTA DNA 2: TACGAATATATTGTCTGTACTACATTTTTATAATTT | 12.7 ln median PBM intensity, better of two orientations
10 | XGTACX_site8253 (dsDNA) DNA 1: TTTTATGAAAAGATGAGTACACAATACTTTTTAATT DNA 2: AATTAAAAAGTATTGTGTACTCATCTTTTCATAAAA | 12.7 ln median PBM intensity, better of two orientations
11 | XGTACX_site5339 (dsDNA) DNA 1: TATTTTTTACATTCGTGTACGCATTTTTGTGAATTT DNA 2: AAATTCACAAAAATGCGTACACGAATGTAAAAAATA | 12.7 ln median PBM intensity, better of two orientations
12 | XGTACX_site6064 (dsDNA) DNA 1: TAAAACATATAAAGGTGTACGCCTTTTTGTATCAAT DNA 2: ATTGATACAAAAAGGCGTACACCTTTATATGTTTTA | 12.6 ln median PBM intensity, better of two orientations
13 | XGTACX_site4956 (dsDNA) DNA 1: AATAAATGGAAAAGGTGTACACAAAAAAAAGGGAAA DNA 2: TTTCCCTTTTTTTTGTGTACACCTTTTCCATTTATT | 12.8 ln median PBM intensity, better of two orientations
14 | XGTACX_site3050 (dsDNA) DNA 1: ATATAATTTTTCAAGTGTACTTTTTTTTTTTAACAT DNA 2: ATGTTAAAAAAAAAAAGTACACTTGAAAAATTATAT | 12.7 ln median PBM intensity, better of two orientations
15 | XGTACX_site5031 (dsDNA) DNA 1: ACATTATATAAAATATGTACACATAAATAAATAAAT DNA 2: ATTTATTTATTTATGTGTACATATTTTATATAATGT | 12.7 ln median PBM intensity, better of two orientations
16 | XGTACX_site5245 (dsDNA) DNA 1: AAAAACAAAATTTGGAGTACAGTTATAATATTATTA DNA 2: TAATAATATTATAACTGTACTCCAAATTTTGTTTTT | 12.7 ln median PBM intensity, better of two orientations
17 | XGTACX_site930 (dsDNA) DNA 1: ATACATATTAATATGTGTACACATTTTTATTTTTTT DNA 2: AAAAAAATAAAAATGTGTACACATATTAATATGTAT | 12.6 ln median PBM intensity, better of two orientations
18 | XGTACX_site3596 (dsDNA) DNA 1: AAGGAAAATTTTTGGTGTACACAAAAAAATCCAAAA DNA 2: TTTTGGATTTTTTTGTGTACACCAAAAATTTTCCTT | 12.8 ln median PBM intensity, better of two orientations
19 | XGTACX_site2541 (dsDNA) DNA 1: ACAGCTACCAGATACTGTACTTTTCTCCAGACTGCA DNA 2: TGCAGTCTGGAGAAAAGTACAGTATCTGGTAGCTGT | 12.6 ln median PBM intensity, better of two orientations
20 | XGTACX_site1983 (dsDNA) DNA 1: GTTTGGTGGTGTTTTGGTACGTACGGGGGGGTATGT DNA 2: ACATACCCCCCCGTACGTACCAAAACACCACCAAAC | 12.7 ln median PBM intensity, better of two orientations
21 | XGTACX_site8426 (dsDNA) DNA 1: TAATATTTATAATAGTGTACACAATTATAAACTGAA DNA 2: TTCAGTTTATAATTGTGTACACTATTATAAATATTA | 12.7 ln median PBM intensity, better of two orientations
22 | XGTACX_site6504 (dsDNA) DNA 1: TGAAAAGATAAAAAAAGTACACACACACATATATAT DNA 2: ATATATATGTGTGTGTGTACTTTTTTTATCTTTTCA | 12.7 ln median PBM intensity, better of two orientations

Row | Binder | binding signal
23 | XGTACX_site7727 (dsDNA) DNA 1: GGTGTATGTTAAAGGAGTACATATATATATATATAT DNA 2: ATATATATATATATATGTACTCCTTTAACATACACC | 12.7 ln median PBM intensity, better of two orientations
24 | XGTACX_site5457 (dsDNA) DNA 1: ATGGATAACAATATGTGTACACATTTATATCTCCAC DNA 2: GTGGAGATATAAATGTGTACACATATTGTTATCCAT | 12.8 ln median PBM intensity, better of two orientations
25 | XGTACX_site4340 (dsDNA) DNA 1: TGATACTTTTTTTGTAGTACTCCTAAAATTATAAAA DNA 2: TTTTATAATTTTAGGAGTACTACAAAAAAAGTATCA | 12.8 ln median PBM intensity, better of two orientations
26 | XGTACX_site882 (dsDNA) DNA 1: TTTTCTTTTTTGAACTGTACGCGTAAATTTAAAAAG DNA 2: CTTTTTAAATTTACGCGTACAGTTCAAAAAAGAAAA | 12.7 ln median PBM intensity, better of two orientations
27 | XGTACX_site4360 (dsDNA) DNA 1: GATTAAAATCAAAGGTGTACGCACAAATAAGTCCCA DNA 2: TGGGACTTATTTGTGCGTACACCTTTGATTTTAATC | 12.7 ln median PBM intensity, better of two orientations
28 | XGTACX_site1238 (dsDNA) DNA 1: ATGTGCACATATAAAAGTACACGCACATATATATAT DNA 2: ATATATATATGTGCGTGTACTTTTATATGTGCACAT | 12.6 ln median PBM intensity, better of two orientations
29 | XGTACX_site2346 (dsDNA) DNA 1: TTAATAATAAAAAGGAGTACACTAATATACTATAAA DNA 2: TTTATAGTATATTAGTGTACTCCTTTTTATTATTAA | 12.7 ln median PBM intensity, better of two orientations
30 | XGTACX_site8843 (dsDNA) DNA 1: ATAATTATTTTCCCGTGTACTTATTTTTTTCAAGTA DNA 2: TACTTGAAAAAAATAAGTACACGGGAAAATAATTAT | 12.6 ln median PBM intensity, better of two orientations
31 | XGTACX_site7170 (dsDNA) DNA 1: GTTTAGATAAAAGGGCGTACATCTATTTTTGACTAA DNA 2: TTAGTCAAAAATAGATGTACGCCCTTTTATCTAAAC | 12.7 ln median PBM intensity, better of two orientations
32 | XGTACX_site206 (dsDNA) DNA 1: TGTTTATACATCAGGTGTACGCAAAATAATTGTATG DNA 2: CATACAATTATTTTGCGTACACCTGATGTATAAACA | 12.7 ln median PBM intensity, better of two orientations
33 | XGTACX_site3178 (dsDNA) DNA 1: CTTGAAAGATTTTATTGTACTCATAAGATACATTTC DNA 2: GAAATGTATCTTATGAGTACAATAAAATCTTTCAAG | 12.7 ln median PBM intensity, better of two orientations
34 | XGTACX_site622 (dsDNA) DNA 1: CTTTGTGTTAAAAGTAGTACACCAAAAATATGACTT DNA 2: AAGTCATATTTTTGGTGTACTACTTTTAACACAAAG | 12.7 ln median PBM intensity, better of two orientations
35 | XGTACX_site7025 (dsDNA) DNA 1: TTTTTCTTTTTTTGGGGTACAGGGAAATCTATATTT DNA 2: AAATATAGATTTCCCTGTACCCCAAAAAAAGAAAAA | 12.7 ln median PBM intensity, better of two orientations
36 | XGTACX_site4899 (dsDNA) DNA 1: TATTCGTGCAATAGTAGTACACTTATAAATTATTCT DNA 2: AGAATAATTTATAAGTGTACTACTATTGCACGAATA | 12.7 ln median PBM intensity, better of two orientations
37 | XGTACX_site8267 (dsDNA) DNA 1: AGATAAATATATTGTAGTACAGGAGCATAAATATAT DNA 2: ATATATTTATGCTCCTGTACTACAATATATTTATCT | 12.8 ln median PBM intensity, better of two orientations
38 | XGTACX_site2251 (dsDNA) DNA 1: GTGTAAAAATTAAAGTGTACACATATATATATATAT DNA 2: ATATATATATATATGTGTACACTTTAATTTTTACAC | 12.8 ln median PBM intensity, better of two orientations
39 | XGTACX_site2257 (dsDNA) DNA 1: CAAAATATACACACGTGTACACAAATATTTACAAAA DNA 2: TTTTGTAAATATTTGTGTACACGTGTGTATATTTTG | 12.6 ln median PBM intensity, better of two orientations
40 | XGTACX_site3586 (dsDNA) DNA 1: TATACATACATTAGACGTACACATTTTACCTACACC DNA 2: GGTGTAGGTAAAATGTGTACGTCTAATGTATGTATA | 12.8 ln median PBM intensity, better of two orientations
41 | XGTACX_site6063 (dsDNA) DNA 1: ATGCATATATTTATGTGTACATATATTTGTAGGGGG DNA 2: CCCCCTACAAATATATGTACACATAAATATATGCAT | 12.6 ln median PBM intensity, better of two orientations
42 | XGTACX_site6887 (dsDNA) DNA 1: TATTTTCCATGAGGTAGTACACATTAAAAAATCGTT DNA 2: AACGATTTTTTAATGTGTACTACCTCATGGAAAATA | 12.8 ln median PBM intensity, better of two orientations
43 | XGTACX_site6072 (dsDNA) DNA 1: CGTTTATATTTTAACTGTACTCAAAAAGTGCATTGT DNA 2: ACAATGCACTTTTTGAGTACAGTTAAAATATAAACG | 12.7 ln median PBM intensity, better of two orientations
